Columns and labels:
Kv1.3 = target: T1, Kv1.3 (Homo sapiens, UniProt P22001); assay: cell-based; format: cell-based; settings: 100% = no change, <100% = inhibition
T1 construct: host or cells: HEK293 or CHO
Method in brief: (§1)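 Peptides were tested in duplicate at final 20 μM and 200 nM, with concentration set by amino acid analysis, in HEPES-buffered saline. They were applied for at least 5 min to HEK293 or CHO cells transfected with each channel. Currents were expressed as % inhibition, 1-(Ipeptide/Icontrol)×100, or % activation, Ipeptide/Icontrol×100, against a channel-matched reference compound.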

Kv1.2 = target: T2, Kv1.2 (Homo sapiens, UniProt P16389); assay: cell-based; format: cell-based; settings: 100% = no change, <100% = inhibition
T2 construct: host or cells: HEK293 or CHO
Method in brief: as §1

Kv1.1 = target: T3, Kv1.1 (Homo sapiens, UniProt Q09470); assay: cell-based; format: cell-based; settings: 100% = no change, <100% = inhibition
T3 construct: host or cells: HEK293 or CHO
Method in brief: as §1

Nav1.7 = target: T4, Nav1.7 (Homo sapiens, UniProt Q15858); assay: cell-based; format: cell-based; settings: 100% = no change; for Activity of Nav1.7 with peptide, expressed as a percentage of the reference compound: peptide at 0.2 μM; for Activity of Nav1.7 with peptide (percentage of the reference compound): peptide at 20 μM
T4 construct: host or cells: HEK293 or CHO
T4 sequence (Q15858 whole entry): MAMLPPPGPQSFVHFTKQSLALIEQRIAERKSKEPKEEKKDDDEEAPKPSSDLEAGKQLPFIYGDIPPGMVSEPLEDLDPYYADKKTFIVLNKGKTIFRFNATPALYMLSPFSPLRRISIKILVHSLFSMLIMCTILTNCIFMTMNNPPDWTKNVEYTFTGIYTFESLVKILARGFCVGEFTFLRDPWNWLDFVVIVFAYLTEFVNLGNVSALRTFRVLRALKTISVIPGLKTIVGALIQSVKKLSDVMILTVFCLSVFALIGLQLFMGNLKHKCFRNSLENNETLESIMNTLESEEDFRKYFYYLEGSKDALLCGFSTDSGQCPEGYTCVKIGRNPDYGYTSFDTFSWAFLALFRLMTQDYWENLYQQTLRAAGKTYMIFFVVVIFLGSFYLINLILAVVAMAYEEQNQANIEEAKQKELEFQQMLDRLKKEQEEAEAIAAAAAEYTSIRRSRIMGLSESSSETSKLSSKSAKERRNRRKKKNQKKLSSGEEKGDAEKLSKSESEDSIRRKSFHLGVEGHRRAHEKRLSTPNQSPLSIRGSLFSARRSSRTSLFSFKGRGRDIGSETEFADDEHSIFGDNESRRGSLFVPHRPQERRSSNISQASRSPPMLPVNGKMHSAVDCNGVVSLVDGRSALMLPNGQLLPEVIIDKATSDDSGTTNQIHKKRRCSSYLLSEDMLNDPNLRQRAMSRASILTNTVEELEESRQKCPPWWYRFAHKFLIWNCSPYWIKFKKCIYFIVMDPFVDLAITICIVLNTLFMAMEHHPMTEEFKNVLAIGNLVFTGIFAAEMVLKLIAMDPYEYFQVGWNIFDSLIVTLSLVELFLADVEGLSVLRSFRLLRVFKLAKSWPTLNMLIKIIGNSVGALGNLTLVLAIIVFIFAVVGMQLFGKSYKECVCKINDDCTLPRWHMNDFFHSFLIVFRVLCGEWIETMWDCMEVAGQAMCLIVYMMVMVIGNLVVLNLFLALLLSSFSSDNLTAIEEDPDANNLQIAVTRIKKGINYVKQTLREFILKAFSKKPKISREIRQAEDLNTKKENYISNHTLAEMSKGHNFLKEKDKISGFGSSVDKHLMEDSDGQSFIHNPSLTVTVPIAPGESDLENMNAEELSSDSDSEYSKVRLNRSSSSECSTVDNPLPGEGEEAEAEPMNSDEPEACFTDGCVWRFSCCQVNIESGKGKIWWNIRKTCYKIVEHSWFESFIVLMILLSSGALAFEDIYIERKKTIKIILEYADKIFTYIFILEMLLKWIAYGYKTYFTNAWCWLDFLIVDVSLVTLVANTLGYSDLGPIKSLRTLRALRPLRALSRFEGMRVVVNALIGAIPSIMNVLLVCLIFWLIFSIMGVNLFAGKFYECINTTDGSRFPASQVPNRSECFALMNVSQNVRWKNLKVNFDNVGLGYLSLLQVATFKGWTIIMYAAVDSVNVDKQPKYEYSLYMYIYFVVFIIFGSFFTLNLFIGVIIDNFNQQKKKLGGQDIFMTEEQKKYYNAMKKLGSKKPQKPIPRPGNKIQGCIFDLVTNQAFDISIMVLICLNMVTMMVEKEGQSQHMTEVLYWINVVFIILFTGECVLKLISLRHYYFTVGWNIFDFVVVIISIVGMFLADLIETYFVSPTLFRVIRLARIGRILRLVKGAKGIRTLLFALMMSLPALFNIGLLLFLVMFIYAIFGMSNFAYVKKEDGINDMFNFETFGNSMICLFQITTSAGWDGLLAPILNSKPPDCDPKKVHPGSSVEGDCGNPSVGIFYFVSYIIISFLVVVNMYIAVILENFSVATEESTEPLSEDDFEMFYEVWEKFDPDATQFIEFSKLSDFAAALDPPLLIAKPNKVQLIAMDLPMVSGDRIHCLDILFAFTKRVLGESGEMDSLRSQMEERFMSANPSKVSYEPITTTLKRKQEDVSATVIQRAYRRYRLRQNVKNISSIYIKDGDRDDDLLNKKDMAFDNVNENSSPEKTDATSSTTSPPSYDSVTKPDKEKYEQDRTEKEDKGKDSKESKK

Cav2.1 = target: T5, Cav2.1 (Homo sapiens, UniProt O00555); assay: cell-based; settings: 100% = no change, <100% = inhibition
T5 construct: host or cells: HEK293 or CHO
Method in brief: as §1

Cav2.2 = target: T6, Cav2.2 (Homo sapiens, UniProt Q00975); assay: cell-based; settings: 100% = no change, <100% = inhibition
T6 construct: host or cells: HEK293 or CHO
Method in brief: as §1

Kv2.1 = target: T7, Kv2.1 (Homo sapiens, UniProt Q14721); assay: cell-based; settings: 100% = no change, <100% = inhibition
T7 construct: host or cells: HEK293 or CHO
Method in brief: as §1

α4β2 = target: T8, α4β2 (Homo sapiens, UniProt P17787+P43681); assay: Ion channel panel (IonWorks Barracuda): α4β2; format: cell-based; settings: 100% = no change, <100% = inhibition
T8 construct: host or cells: HEK293 or CHO
Method in brief: as §1

α3β4 = target: T9, α3β4 (Homo sapiens, UniProt P30926+P32297); assay: Ion channel panel (IonWorks Barracuda): α3β4; format: cell-based; settings: 100% = no change, <100% = inhibition
T9 construct: host or cells: HEK293 or CHO
Method in brief: as §1

NR2A = target: T10, NR2A (Homo sapiens, UniProt Q12879); assay: Ion channel panel (IonWorks Barracuda): NR2A; format: cell-based; settings: 100% = no change, <100% = inhibition
T10 construct: host or cells: HEK293 or CHO
Method in brief: as §1

Kir2.1 = target: T11, Kir2.1 (Homo sapiens, UniProt P63252); assay: Ion channel panel (IonWorks Barracuda): Kir2.1; format: cell-based; settings: 100% = no change, <100% = inhibition
T11 construct: host or cells: HEK293 or CHO
Method in brief: as §1

GABA = assay: Ion channel panel (IonWorks Barracuda): GABA; format: cell-based; settings: 100% = no change, <100% = inhibition
Method in brief: as §1

hERG = hERG (Homo sapiens, UniProt Q12809); assay: in vitro; settings: 100% = no change, <100% = inhibition
Method in brief: as §1

Nav1.5 = Nav1.5 (Homo sapiens, UniProt Q14524); assay: in vitro; settings: 100% = no change; for Activity of Nav1.5 with peptide, expressed as a percentage of the reference compound: peptide at 0.2 μM; for Activity of Nav1.5 with peptide (percentage of the reference compound): peptide at 20 μM
Nav1.5, sequence (Q14524 whole entry): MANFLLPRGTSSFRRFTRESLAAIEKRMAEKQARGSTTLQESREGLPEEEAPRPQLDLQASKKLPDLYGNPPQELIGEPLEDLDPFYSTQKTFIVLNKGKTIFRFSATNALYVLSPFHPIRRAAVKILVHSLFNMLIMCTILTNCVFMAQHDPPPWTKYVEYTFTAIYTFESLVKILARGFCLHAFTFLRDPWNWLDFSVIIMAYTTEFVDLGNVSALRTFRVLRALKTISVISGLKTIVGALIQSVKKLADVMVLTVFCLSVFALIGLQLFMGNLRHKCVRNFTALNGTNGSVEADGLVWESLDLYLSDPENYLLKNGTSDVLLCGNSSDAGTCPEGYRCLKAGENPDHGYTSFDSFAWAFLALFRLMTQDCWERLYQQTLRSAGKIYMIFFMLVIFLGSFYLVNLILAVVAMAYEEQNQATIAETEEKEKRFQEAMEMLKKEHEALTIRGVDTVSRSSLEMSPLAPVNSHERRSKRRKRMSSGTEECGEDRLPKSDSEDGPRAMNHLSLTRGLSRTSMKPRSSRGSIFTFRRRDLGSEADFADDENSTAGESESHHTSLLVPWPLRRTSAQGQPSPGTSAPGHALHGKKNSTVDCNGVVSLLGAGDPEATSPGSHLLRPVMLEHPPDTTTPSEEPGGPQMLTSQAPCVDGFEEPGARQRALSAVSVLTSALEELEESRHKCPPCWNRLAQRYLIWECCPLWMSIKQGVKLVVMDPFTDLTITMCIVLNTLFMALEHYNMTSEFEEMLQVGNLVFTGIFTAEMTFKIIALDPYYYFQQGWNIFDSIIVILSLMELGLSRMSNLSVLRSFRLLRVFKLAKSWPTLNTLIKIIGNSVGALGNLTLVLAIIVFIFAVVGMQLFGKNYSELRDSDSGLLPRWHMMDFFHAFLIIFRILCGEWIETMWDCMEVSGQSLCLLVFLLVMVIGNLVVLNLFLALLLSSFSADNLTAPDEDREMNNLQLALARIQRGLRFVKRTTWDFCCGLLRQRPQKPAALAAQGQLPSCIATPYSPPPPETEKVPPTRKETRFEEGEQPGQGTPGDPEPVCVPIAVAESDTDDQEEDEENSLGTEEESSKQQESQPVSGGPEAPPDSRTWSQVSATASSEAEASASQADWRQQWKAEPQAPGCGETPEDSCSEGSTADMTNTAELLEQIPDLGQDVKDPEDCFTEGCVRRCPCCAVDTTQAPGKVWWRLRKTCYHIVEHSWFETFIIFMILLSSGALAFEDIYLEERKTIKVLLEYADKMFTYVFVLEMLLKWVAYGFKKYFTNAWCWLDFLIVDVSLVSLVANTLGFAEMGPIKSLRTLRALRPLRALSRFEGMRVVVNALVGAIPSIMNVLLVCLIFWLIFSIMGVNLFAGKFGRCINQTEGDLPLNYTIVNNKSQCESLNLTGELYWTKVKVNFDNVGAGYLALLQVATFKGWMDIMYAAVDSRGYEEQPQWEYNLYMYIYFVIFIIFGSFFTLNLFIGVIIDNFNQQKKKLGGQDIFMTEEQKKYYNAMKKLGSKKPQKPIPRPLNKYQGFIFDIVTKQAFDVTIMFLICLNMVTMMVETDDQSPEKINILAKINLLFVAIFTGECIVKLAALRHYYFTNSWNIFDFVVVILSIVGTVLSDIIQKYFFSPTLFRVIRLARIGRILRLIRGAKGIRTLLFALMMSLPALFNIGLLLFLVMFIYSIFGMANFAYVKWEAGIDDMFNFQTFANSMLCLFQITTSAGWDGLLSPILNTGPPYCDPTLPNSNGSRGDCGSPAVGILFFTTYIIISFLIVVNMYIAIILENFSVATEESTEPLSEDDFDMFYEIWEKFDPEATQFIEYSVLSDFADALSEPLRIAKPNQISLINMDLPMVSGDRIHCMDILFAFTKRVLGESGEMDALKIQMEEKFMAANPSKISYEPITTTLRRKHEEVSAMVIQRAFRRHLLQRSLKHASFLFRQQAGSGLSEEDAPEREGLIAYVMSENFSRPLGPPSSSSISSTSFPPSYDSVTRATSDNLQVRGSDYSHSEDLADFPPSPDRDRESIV
Method in brief: as §1

5HT3a = target: T12, 5HT3a (Homo sapiens, UniProt P46098); assay: Ion channel panel (IonWorks Barracuda): 5HT3a; format: cell-based
T12 construct: host or cells: HEK293 or CHO
T12 sequence (P46098 whole entry, looked up): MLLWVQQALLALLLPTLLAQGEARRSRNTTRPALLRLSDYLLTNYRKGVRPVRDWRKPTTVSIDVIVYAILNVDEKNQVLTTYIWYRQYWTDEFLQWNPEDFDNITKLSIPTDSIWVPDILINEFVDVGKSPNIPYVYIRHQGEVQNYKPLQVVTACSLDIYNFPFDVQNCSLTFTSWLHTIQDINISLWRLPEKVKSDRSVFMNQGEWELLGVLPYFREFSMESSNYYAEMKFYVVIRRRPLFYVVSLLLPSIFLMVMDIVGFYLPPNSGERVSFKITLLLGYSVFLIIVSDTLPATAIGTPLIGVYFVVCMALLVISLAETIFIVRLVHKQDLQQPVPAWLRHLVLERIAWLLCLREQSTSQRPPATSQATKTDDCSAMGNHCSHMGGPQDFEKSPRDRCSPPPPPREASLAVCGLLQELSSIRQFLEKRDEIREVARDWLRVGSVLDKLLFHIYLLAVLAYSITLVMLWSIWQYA
Method in brief: as §1

NR2B = target: T13, NR2B (Homo sapiens, UniProt Q13224); assay: Ion channel panel (IonWorks Barracuda): NR2B; format: cell-based; settings: 100% = no change, <100% = inhibition
T13 construct: host or cells: HEK293 or CHO
Method in brief: as §1

TRPV1 = target: T14, TRPV1 (Homo sapiens, UniProt Q8NER1); assay: Ion channel panel (IonWorks Barracuda): TRPV1; format: cell-based; settings: 100% = no change, <100% = inhibition
T14 construct: host or cells: HEK293 or CHO
Method in brief: as §1

TRPA1 = target: T15, TRPA1 (Homo sapiens, UniProt O75762); assay: Ion channel panel (IonWorks Barracuda): TRPA1; format: cell-based; settings: 100% = no change, <100% = inhibition
T15 construct: host or cells: HEK293 or CHO
T15 sequence (O75762 whole entry): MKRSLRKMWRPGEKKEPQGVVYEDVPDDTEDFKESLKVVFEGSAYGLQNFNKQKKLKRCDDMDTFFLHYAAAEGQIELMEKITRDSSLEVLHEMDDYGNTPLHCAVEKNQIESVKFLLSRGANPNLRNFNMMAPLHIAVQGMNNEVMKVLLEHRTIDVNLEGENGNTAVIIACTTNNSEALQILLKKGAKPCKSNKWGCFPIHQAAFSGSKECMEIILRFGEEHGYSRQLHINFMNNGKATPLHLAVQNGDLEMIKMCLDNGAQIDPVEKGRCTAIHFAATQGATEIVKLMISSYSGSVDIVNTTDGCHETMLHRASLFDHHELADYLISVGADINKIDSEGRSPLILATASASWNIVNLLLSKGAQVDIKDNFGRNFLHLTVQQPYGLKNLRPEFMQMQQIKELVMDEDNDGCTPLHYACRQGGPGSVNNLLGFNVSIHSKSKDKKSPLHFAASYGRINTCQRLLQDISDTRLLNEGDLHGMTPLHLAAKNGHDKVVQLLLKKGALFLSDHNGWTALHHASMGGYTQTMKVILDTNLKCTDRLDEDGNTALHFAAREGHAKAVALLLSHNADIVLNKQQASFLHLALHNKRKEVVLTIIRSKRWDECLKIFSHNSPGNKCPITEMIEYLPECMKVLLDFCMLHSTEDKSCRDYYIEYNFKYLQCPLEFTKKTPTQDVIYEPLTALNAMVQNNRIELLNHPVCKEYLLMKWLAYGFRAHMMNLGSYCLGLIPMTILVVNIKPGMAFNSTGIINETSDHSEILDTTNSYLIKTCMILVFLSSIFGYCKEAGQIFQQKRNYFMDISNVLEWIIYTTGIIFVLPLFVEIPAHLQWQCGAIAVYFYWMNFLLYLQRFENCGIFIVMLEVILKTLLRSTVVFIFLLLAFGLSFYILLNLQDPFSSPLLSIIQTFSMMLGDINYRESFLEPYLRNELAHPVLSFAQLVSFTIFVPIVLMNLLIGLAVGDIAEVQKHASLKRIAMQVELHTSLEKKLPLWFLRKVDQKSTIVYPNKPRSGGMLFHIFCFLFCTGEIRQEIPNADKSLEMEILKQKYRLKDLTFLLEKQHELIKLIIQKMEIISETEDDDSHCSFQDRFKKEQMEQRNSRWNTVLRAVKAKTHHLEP
Method in brief: as §1

[1] = first of two Nav1.7 columns (probably TP1)
[2] = second of two Nav1.7 columns (probably TP2)
[3] = first of two Nav1.5 columns (probably TP1)
[4] = second of two Nav1.5 columns (probably TP2)

23 (GSCIGEGVPCDENDPRCCFGLVCLKPTLHGIWYKSYYCYKK) [compound 23]
Activity of Kv1.3 with peptide, expressed as a percentage of the reference compound (Kv1.3; peptide at 0.2 μM): 81%
Activity of Kv1.3 with peptide (percentage of the reference compound) (Kv1.3; peptide at 20 μM): 77%
Activity of Kv1.2 with peptide, expressed as a percentage of the reference compound (Kv1.2; peptide at 0.2 μM): 83%
Activity of Kv1.2 with peptide (percentage of the reference compound) (Kv1.2; peptide at 20 μM): 106%
Activity of Kv1.1 with peptide, expressed as a percentage of the reference compound (Kv1.1; peptide at 0.2 μM): 95%
Activity of Kv1.1 with peptide (percentage of the reference compound) (Kv1.1; peptide at 20 μM): 102%
Activity of Nav1.7 with peptide, expressed as a percentage of the reference compound (Nav1.7; [1]): 89%
Activity of Nav1.7 with peptide, expressed as a percentage of the reference compound (Nav1.7; [2]): 93%
Activity of Nav1.7 with peptide (percentage of the reference compound) (Nav1.7; [1]): 65%
Activity of Nav1.7 with peptide (percentage of the reference compound) (Nav1.7; [2]): 63%
Activity of Cav2.1 with peptide, expressed as a percentage of the reference compound (Cav2.1; peptide at 0.2 μM): 95%
Activity of Cav2.1 with peptide (percentage of the reference compound) (Cav2.1; peptide at 20 μM): 102%
Activity of Cav2.2 with peptide, expressed as a percentage of the reference compound (Cav2.2; peptide at 0.2 μM): 110%
Activity of Cav2.2 with peptide (percentage of the reference compound) (Cav2.2; peptide at 20 μM): 95%
Activity of Kv2.1 with peptide, expressed as a percentage of the reference compound (Kv2.1; peptide at 0.2 μM): 93%
Activity of Kv2.1 with peptide (percentage of the reference compound) (Kv2.1; peptide at 20 μM): 103%
Activity of a4b2 with peptide, expressed as a percentage of the reference compound (α4β2; peptide at 0.2 μM): 87%
Activity of a4b2 with peptide (percentage of the reference compound) (α4β2; peptide at 20 μM): 79%
Activity of a3b4 with peptide, expressed as a percentage of the reference compound (α3β4; peptide at 0.2 μM): 94%
Activity of a3b4 with peptide (percentage of the reference compound) (α3β4; peptide at 20 μM): 93%
Activity of NR2A with peptide, expressed as a percentage of the reference compound (NR2A; peptide at 0.2 μM): 88%
Activity of NR2A with peptide (percentage of the reference compound) (NR2A; peptide at 20 μM): 89%
Activity of Kir2.1 with peptide, expressed as a percentage of the reference compound (Kir2.1; peptide at 0.2 μM): 105%
Activity of Kir2.1 with peptide (percentage of the reference compound) (Kir2.1; peptide at 20 μM): 82%
Activity of GABA with peptide, expressed as a percentage of the reference compound (GABA; peptide at 0.2 μM): 100%
Activity of GABA with peptide (percentage of the reference compound) (GABA; peptide at 20 μM): 103%
Activity of hERG with peptide, expressed as a percentage of the reference compound (hERG; peptide at 0.2 μM): 92%
Activity of hERG with peptide (percentage of the reference compound) (hERG; peptide at 20 μM): 78%
Activity of Nav1.5 with peptide, expressed as a percentage of the reference compound (Nav1.5; [3]): 85%
Activity of Nav1.5 with peptide, expressed as a percentage of the reference compound (Nav1.5; [4]): 87%
Activity of Nav1.5 with peptide (percentage of the reference compound) (Nav1.5; [3]): 85%
Activity of Nav1.5 with peptide (percentage of the reference compound) (Nav1.5; [4]): 83%
Activity of 5HT3a with peptide (percentage of the reference compound) (5HT3a): 101%
Activity of 5HT3a with peptide, expressed as a percentage of the reference compound (5HT3a): 74%
Activity of NR2B with peptide, expressed as a percentage of the reference compound (NR2B; peptide at 0.2 μM): 95%
Activity of NR2B with peptide (percentage of the reference compound) (NR2B; peptide at 20 μM): 82%
Activity of TRPV1 with peptide, expressed as a percentage of the reference compound (TRPV1; peptide at 0.2 μM): 117%
Activity of TRPV1 with peptide (percentage of the reference compound) (TRPV1; peptide at 20 μM): 87%
Activity of TRPA1 with peptide, expressed as a percentage of the reference compound (TRPA1; peptide at 0.2 μM): 126%
Activity of TRPA1 with peptide (percentage of the reference compound) (TRPA1; peptide at 20 μM): 83%

— patent publication US20200262877A1, “ION CHANNEL-BINDING PEPTIDES AND METHODS OF USE THEREOF” (priority 2017, published 2020)
